Measured values published in patent US11406723B2, “Radiotherapeutic and companion imaging agents to target MC1R” (H. LEE MOFFITT CANCER CENTER AND RESEARCH INSTITUTE, INC., priority 2015, dated 2022).
Values joined by “and” are separate entries in the source; they are usually repeats but may differ in a detail not shown here. Identical values can stand only once. Where a SMILES comes first, the peptide text is derived from it. Side-chain parts run from the residue outwards. [ ]: non-standard residue; d: D form. The star is where a group is joined. 1‑Phenylbutyric acid = 1-phenylbutyric acid N-terminal cap; DOTA = O=C(O)CN1CCN(CC(=O)O)CCN(CC(=O)*)CCN(CC(=O)O)CC1; Butanoyl(4-Ph) = O=C(CCCc1ccccc1)*; Ahx = NCCCCCC(=O)O

Key:
A375/MC1R tumors = test: Efficacy in SCID mice bearing A375/MC1R tumors; type: in vivo; conditions: after injection; control groups
Procedure: Mice were observed daily for health and twice per week weighed and tumor volumes measured by caliper. When the tumors reach 2000 mm^3 (experimental endpoint), animals were euthanized. Euthanizations prior to 2000 mm^3 were due to clinical endpoints, i.e. predominantly due to tumor ulceration.
1.9-3.3 μCi of MC1RL-DOTA-^225Ac, 1.8-2.7 μCi of scrambled peptide-DOTA-^225Ac, an excess of the cold agent (MC1RL-DOTA-^139La) and saline were injected to the SCID mice bearing A375/MC1R tumors injection (n=10 per group, volume of the tumors: 57-266 mm3). Mice were observed daily for health and twice per week weighed and tumor volumes measured by caliper. When the tumors reach 2000 mm^3 (experimental endpoint), animals were euthanized. Euthanizations prior to 2000 mm^3 were due to clinical endpoints, i.e. predominantly due to tumor ulceration.
These 2 mice are currently tumor free 150 days post injection. The other 7 treated mice were euthanized at an average of 86 days due to tumor ulceration without progression. While the median time-to-endpoint (tumor >2000 mm^3) of control mice treated with saline, MC1RL-DOTA-^139La (cold surrogate) and scrambled peptide-DOTA-^225Ac were 22, 24 and 32 days respectively after injection.

MC1R (Hek293/MC1R cells) [1] = biological target: T1, MC1R (Hek293/MC1R cells) (Homo sapiens, UniProt Q01726); test: Saturation TRF binding assay with europium-chelated compounds; conditions: Eu chelate; 20x MC1RL-DOTA used for blocking; two repeats; read-out: Kd, specific saturation binding
T1 construct: expressed in transfected cells; host or cells: Hek293
Source text: The binding sequence is 1-Phenylbutyric acid-His(D)Phe-Arg-Trp-Gly-Lys(Ahx-DOTA)-CONH2. Eu is chelated into the conjugated DOTA for lanthanide-based binding assays but ^225Ac, ^68Ga, or ^111In can also be chelated. […] 20×MC1Rl-DOTA was used for blocking. […] Data is the result of two repeats.
The binding sequence is 1-Phenylbutyric acid-His(D)Phe-Arg-Trp-Gly-Lys(DOTA)-CONH2. Eu is chelated into the conjugated DOTA for lanthanide-based binding assays but ^225AC, ^68Ga, or ^111In can also be chelated. […] 20×MC1Rl-DOTA was used for blocking. […] Data is the result of two repeats.
The binding sequence is 1-Phenylbutyric acid-His(D)Phe-Arg-Trp-Gly-Lys(D-di-Glu-DOTA)-CONH2. Eu is chelated into the conjugated DOTA for lanthanide-based binding assays but ^225Ac, ^68Ga, or ^111In can also be chelated. […] 20×MC1Rl-DOTA was used for blocking. […] Data is the result of two repeats.
Time-resolved fluorescence (TRF) competition binding assays were performed to determine binding affinities of these DOTA conjugates (FIG. 2). The TRF method takes advantage of the long fluorescence lifetime of the lanthanide Europium and can detect less than one attomole in a multiwell plate sample. Hek293/MC1R cells (Hek293 cells engineered to over-express MC1R) were used for the binding assays. […]

MC1R (Hek293/MC1R cells) [2] = biological target: T1, MC1R (Hek293/MC1R cells); test: Time-resolved fluorescence (TRF) competition binding assay; conditions: competitive binding, read-out: binding affinity to MC1R (Ki)
Procedure: FIG. 2 is a graph from representative competitive binding assays of the ^139La- and ^69Ga-DOTA-MC1RL peptides.
Time-resolved fluorescence (TRF) competition binding assays were performed to determine binding affinities of these DOTA conjugates (FIG. 2). The TRF method takes advantage of the long fluorescence lifetime of the lanthanide Europium and can detect less than one attomole in a multiwell plate sample. Hek293/MC1R cells (Hek293 cells engineered to over-express MC1R) were used for the binding assays. Saturation TRF binding assays were performed using versions of the compounds with chelated europium to determine specific and non-specific binding (FIG. 17-20).

[3] = MTD study of the radiotherapeutic agent; type: in vivo, mice
Source text: FIGS. 6A, 6B and 6C are graphs from a MTD study of ^225Ac-DOTA-MC1RL radio-therapeutic agent.
(Table 3). […] Blood urea nitrogen (BUN) (FIG. 6B) and blood creatinine (FIG. 6C) levels, and pathology of a range of tissues including heart, lungs, brain, kidney and liver were all unremarkable.

[4] = tested on: A375/MC1R and A375 xenograft tumors; test: In vivo tumor targeting, bilateral A375/MC1R and A375 xenografts, fluorescence imaging; parameters: species or system nude mice; conditions: 4 h post-injection, i.v., P≤0.05, n=3
Procedure: FIG. 3 contains data from in vivo targeting of a MC1R specific probe. Left mice: Representative images of normalized fluorescence intensity maps overlaid on mice bearing xenograft tumors. […] A blocking experiment (right mouse) was performed by coinjection of 0.25 μg unlabeled NDP-α-MSH and 3 nmol/kg of the MC1RL-800 probe. […] Right mouse: Representative tomographic image of a mouse bearing a B16F10 xenograft tumor at 4 h after injection of 3 nmol/kg of the MC1RL-800 imaging probe using the FMT 2500 LX quantitative fluorescence tomography in vivo imaging system (PerkinElmer).
Previously, to investigate tumor targeting of the infrared conjugate of the ligand in vivo, bilateral subcutaneous xenograft tumors with A375/MC1R engineered cells in the right flank and A375 parental cells with relatively low MC1R expression in the left flank of nude mice and MC1RL-800 probe was injected intravenously and fluorescence accumulation was monitored over time. […] In vivo blocking studies were performed to determine that probe retention in the tumor was due to specific binding (FIG. 3, left mice).

MC1R = MC1R (Homo sapiens, UniProt Q01726); conditions: read-out: binding affinity (Ki); cited from earlier work
[5] = in vivo fluorescence imaging and mathematical model; cited from earlier work

T1 sequence (Q01726 whole entry): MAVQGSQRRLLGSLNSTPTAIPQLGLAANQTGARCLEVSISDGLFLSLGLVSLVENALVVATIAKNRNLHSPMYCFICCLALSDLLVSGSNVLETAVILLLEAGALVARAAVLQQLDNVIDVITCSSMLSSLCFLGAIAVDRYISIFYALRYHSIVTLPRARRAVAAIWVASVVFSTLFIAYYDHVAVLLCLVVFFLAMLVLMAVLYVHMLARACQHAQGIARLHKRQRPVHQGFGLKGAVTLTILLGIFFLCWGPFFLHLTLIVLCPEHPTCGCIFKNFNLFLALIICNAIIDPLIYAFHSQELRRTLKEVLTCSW
Chain of MC1R (Q01726 whole entry): as above

With `N=C(N)NCCC[C@H](NC(=O)[C@@H](Cc1ccccc1)NC(=O)[C@H](Cc1c[nH]cn1)NC(=O)CCCc1ccccc1)C(=O)N[C@@H](Cc1c[nH]c2ccccc12)C(=O)NCC(=O)N[C@@H](CCCCNC(=O)CCCCCNC(=O)CN1CCN(CC(=O)O)CCN(CC(=O)O)CCN(CC(=O)O)CC1)C(N)=O` (139La complex, metal not drawn) [^139La-DOTA-MC1RL] ({Butanoyl(4-Ph)}-H[dF]RWGK([Ahx-DOTA])-NH2) the “median time-to-endpoint (tumor >2000 mm^3)” value (A375/MC1R tumors) was 24 days.
Molecule `N=C(N)NCCC[C@H](NC(=O)[C@@H](Cc1ccccc1)NC(=O)[C@H](Cc1c[nH]cn1)NC(=O)CCCc1ccccc1)C(=O)N[C@@H](Cc1c[nH]c2ccccc12)C(=O)NCC(=O)N[C@@H](CCCCNC(=O)CCCCCNC(=O)CN1CCN(CC(=O)O)CCN(CC(=O)O)CCN(CC(=O)O)CC1)C(N)=O` [1-Phenylbutyric acid-His(D)Phe-Arg-Trp-Gly-Lys(Ahx-DOTA)-CONH2] ({Butanoyl(4-Ph)}-H[dF]RWGK([Ahx-DOTA])-NH2) has a Kd (MC1R (Hek293/MC1R cells) [1]) of 0.88 nM.
With `N=C(N)NCCC[C@H](NC(=O)[C@@H](Cc1ccccc1)NC(=O)[C@H](Cc1c[nH]cn1)NC(=O)CCCc1ccccc1)C(=O)N[C@@H](Cc1c[nH]c2ccccc12)C(=O)NCC(=O)N[C@@H](CCCCNC(=O)CCCCCNC(=O)CN1CCN(CC(=O)O)CCN(CC(=O)O)CCN(CC(=O)O)CC1)C(N)=O` [DOTA-MC1RL] ({Butanoyl(4-Ph)}-H[dF]RWGK([Ahx-DOTA])-NH2) the Ki (MC1R (Hek293/MC1R cells) [2]) was 0.24 nM and 0.3 nM.
In the case of `N=C(N)NCCC[C@H](NC(=O)[C@@H](Cc1ccccc1)NC(=O)[C@H](Cc1c[nH]cn1)NC(=O)CCCc1ccccc1)C(=O)N[C@@H](Cc1c[nH]c2ccccc12)C(=O)NCC(=O)N[C@@H](CCCCNC(=O)CCCCCNC(=O)CN1CCN(CC(=O)O)CCN(CC(=O)O)CCN(CC(=O)O)CC1)C(N)=O` [^225Ac-DOTA-MC1RL, metal not drawn] ({Butanoyl(4-Ph)}-H[dF]RWGK([Ahx-DOTA])-NH2), the overall tolerability ([3]; MTD study) is reported as “tolerated extremely well”, the “behavior in MTD study” value ([3]; range of radioactivities) is reported as “no signs of altered behavior” and the blood creatinine level ([3]; range of radioactivities) is reported as “unremarkable”. For the same molecule, the “blood urea nitrogen (BUN) level” value ([3]; range of radioactivities) was “unremarkable”, the “pathology of tissues including heart, lungs, brain, kidney and liver” value ([3]; range of radioactivities) was “unremarkable” and the “weight gain in MTD study” value ([3]; range of radioactivities, weight gain decreased with increased activity) was “All mice gained weight”.
For “MC1RL-800: near-infrared fluorescent (NIRF) dye conjugated analog of MC1RL, imaging probe ({1‑Phenylbutyric acid}-H[dF]RWGK-NH2; also: NIR dye 800 conjugate, site not given here)”, the “normalized fluorescence signal of low-MC1R A375 tumors compared to A375/MC1R tumors” value [4] is given as “significantly lower normalized fluorescence signal”, the Ki (MC1R) is given as 0.4 ± 0.1 nM and the clearance [5] is given as “rapid renal clearance”. For the same molecule, the “crossing of the blood brain barrier (BBB)” value [5] was “does not cross the BBB”.
